Reference: patent publication US20070077617
“Also recorded” adds a separate entry of the source.

Experiments:
[1] = biological target: fusion protein PRR
[2] = biological target: fusion protein PRI
[3] = biological target: fusion protein PRS
[4] = biological target: fusion protein PRD
[5] = biological target: fusion protein PRP
[6] = biological target: fusion protein PA2
[7] = biological target: fusion protein PRK
[8] = biological target: fusion protein PA1A3′
[9] = biological target: fusion protein PA4
Sequence of fusion protein PA4 (chain, as listed by the source): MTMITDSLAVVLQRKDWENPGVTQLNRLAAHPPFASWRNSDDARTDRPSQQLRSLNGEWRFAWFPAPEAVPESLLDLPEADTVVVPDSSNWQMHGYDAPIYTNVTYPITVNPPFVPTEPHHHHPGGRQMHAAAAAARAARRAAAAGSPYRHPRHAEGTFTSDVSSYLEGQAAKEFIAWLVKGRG

[10] = biological target: fusion protein PA4D23′
Sequence of fusion protein PA4D23′ (chain, as listed by the source): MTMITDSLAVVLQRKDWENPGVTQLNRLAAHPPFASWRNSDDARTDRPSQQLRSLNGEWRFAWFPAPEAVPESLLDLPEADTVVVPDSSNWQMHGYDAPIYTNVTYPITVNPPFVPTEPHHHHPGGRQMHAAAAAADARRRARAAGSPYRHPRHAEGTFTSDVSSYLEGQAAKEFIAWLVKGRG

[11] = biological target: fusion protein PA3
Sequence of fusion protein PA3 (chain, as listed by the source): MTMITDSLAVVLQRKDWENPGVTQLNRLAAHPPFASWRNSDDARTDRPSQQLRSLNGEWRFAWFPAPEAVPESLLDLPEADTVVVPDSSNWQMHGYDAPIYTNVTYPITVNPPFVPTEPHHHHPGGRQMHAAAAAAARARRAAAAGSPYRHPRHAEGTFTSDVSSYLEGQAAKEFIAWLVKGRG

[12] = biological target: fusion protein PMT
Sequence of fusion protein PMT (chain, as listed by the source): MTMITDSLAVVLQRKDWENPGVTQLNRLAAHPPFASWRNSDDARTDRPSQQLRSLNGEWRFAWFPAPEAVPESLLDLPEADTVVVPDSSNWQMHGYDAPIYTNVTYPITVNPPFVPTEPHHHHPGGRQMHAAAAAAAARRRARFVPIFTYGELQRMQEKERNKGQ

[13] = biological target: fusion protein PRH
[14] = biological target: fusion protein PA8
Sequence of fusion protein PA8 (chain, as listed by the source): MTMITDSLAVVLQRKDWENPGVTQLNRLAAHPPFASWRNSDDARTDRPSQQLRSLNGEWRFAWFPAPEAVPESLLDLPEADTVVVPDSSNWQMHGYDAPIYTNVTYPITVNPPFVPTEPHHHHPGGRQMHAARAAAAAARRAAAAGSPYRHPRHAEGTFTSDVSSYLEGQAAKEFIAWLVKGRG

[15] = biological target: fusion protein PRA
Sequence of fusion protein PRA (chain, as listed by the source): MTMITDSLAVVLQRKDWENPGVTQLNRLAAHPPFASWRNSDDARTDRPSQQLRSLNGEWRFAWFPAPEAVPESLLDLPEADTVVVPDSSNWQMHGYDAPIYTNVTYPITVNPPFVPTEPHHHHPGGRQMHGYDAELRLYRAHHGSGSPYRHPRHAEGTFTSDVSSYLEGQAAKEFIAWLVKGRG

[16] = biological target: fusion protein PRT
[17] = biological target: fusion protein PRC
[18] = biological target: fusion protein PA6
Sequence of fusion protein PA6 (chain, as listed by the source): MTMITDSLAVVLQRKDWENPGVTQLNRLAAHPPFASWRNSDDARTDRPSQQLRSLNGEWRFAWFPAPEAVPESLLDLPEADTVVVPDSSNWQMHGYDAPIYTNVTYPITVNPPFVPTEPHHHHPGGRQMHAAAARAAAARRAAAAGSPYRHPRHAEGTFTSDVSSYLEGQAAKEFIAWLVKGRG

[19] = biological target: fusion protein PA5D23′
Sequence of fusion protein PA5D23′ (chain, as listed by the source): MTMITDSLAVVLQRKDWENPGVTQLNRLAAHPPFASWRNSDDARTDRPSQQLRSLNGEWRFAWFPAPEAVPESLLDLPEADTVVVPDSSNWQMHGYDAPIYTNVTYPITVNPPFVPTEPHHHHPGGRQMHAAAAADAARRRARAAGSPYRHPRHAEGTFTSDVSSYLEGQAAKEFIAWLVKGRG

[20] = biological target: fusion protein PA323′
Sequence of fusion protein PA323′ (chain, as listed by the source): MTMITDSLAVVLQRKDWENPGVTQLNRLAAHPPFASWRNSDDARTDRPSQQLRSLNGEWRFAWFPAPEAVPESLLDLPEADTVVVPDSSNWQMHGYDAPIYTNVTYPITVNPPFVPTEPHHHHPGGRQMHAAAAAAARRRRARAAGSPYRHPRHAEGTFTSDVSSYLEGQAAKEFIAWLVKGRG

[21] = biological target: fusion protein PA2′3′
Sequence of fusion protein PA2′3′ (chain, as listed by the source): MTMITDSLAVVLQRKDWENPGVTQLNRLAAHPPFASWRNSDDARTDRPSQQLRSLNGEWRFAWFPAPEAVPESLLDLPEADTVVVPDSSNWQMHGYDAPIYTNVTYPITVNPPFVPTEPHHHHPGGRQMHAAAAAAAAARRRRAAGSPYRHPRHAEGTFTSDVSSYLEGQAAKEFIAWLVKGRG

[22] = biological target: fusion protein PA1′A3′
Sequence of fusion protein PA1′A3′ (chain, as listed by the source): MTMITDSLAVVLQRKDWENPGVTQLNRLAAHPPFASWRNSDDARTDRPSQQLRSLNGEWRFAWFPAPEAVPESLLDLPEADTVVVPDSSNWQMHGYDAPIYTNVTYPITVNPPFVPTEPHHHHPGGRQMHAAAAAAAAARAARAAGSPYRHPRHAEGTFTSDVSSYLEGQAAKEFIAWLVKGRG

[23] = biological target: fusion protein PA5
Sequence of fusion protein PA5 (chain, as listed by the source): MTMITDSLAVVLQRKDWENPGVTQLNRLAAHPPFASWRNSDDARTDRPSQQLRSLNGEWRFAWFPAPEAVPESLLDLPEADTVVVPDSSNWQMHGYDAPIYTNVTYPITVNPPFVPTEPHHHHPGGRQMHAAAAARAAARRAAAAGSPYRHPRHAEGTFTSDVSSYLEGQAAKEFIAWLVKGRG

[24] = biological target: fusion protein PA3D23′
Sequence of fusion protein PA3D23′ (chain, as listed by the source): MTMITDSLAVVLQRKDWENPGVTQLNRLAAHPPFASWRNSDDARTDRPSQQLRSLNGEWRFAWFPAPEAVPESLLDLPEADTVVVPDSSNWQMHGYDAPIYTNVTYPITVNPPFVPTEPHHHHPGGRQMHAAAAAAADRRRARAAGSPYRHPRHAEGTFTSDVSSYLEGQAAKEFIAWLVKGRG

[25] = biological target: human calcitonin precursor fusion protein PCT
[26] = biological target: fusion protein PA2′
Sequence of fusion protein PA2′ (chain, as listed by the source): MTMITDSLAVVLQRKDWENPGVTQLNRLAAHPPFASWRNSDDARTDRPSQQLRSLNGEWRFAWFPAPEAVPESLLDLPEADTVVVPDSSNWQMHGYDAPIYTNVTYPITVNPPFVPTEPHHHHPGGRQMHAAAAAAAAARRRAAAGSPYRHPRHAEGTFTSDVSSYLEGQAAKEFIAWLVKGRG

[27] = biological target: fusion protein PA9
Sequence of fusion protein PA9 (chain, as listed by the source): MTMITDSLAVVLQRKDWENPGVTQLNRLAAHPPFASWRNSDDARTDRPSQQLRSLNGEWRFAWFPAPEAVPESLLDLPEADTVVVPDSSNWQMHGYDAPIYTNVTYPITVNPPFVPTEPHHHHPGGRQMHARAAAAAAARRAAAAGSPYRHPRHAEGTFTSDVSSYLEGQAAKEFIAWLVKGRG

[28] = biological target: fusion protein PRL
[29] = biological target: fusion protein PRY
[30] = biological target: fusion protein PA23′
Sequence of fusion protein PA23′ (chain, as listed by the source): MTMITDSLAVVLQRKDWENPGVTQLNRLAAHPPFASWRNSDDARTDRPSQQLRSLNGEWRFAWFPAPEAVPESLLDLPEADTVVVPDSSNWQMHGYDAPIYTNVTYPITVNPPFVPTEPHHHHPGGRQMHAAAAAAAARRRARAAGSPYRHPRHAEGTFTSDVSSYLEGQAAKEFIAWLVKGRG

[31] = biological target: fusion protein PRF
[32] = biological target: fusion protein PRE
[33] = biological target: fusion protein PA10
Sequence of fusion protein PA10 (chain, as listed by the source): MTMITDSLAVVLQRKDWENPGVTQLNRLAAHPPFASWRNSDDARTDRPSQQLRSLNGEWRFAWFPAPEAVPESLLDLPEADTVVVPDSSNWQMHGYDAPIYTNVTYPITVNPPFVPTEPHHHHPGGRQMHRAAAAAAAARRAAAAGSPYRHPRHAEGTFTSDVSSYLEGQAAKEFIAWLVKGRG

[34] = biological target: fusion protein PRN
[35] = biological target: fusion protein PA
[36] = biological target: fusion protein PRV
Sequence of fusion protein PRV (chain, as listed by the source): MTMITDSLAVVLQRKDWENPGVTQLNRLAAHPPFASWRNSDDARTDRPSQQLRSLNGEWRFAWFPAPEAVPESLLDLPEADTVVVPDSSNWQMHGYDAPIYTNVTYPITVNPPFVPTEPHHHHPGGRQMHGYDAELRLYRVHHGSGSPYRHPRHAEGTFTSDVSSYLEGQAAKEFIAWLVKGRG

[37] = biological target: fusion protein PRQ
[38] = biological target: human adrenocorticotropic hormone(1-24) fusion protein PAC
[39] = biological target: fusion protein PA3′
Sequence of fusion protein PA3′ (chain, as listed by the source): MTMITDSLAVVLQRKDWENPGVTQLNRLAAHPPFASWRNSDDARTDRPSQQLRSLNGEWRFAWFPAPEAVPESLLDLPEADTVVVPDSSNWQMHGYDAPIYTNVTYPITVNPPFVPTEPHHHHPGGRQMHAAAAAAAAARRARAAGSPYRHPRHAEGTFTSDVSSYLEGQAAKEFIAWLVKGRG

[40] = biological target: fusion protein PA4′
Sequence of fusion protein PA4′ (chain, as listed by the source): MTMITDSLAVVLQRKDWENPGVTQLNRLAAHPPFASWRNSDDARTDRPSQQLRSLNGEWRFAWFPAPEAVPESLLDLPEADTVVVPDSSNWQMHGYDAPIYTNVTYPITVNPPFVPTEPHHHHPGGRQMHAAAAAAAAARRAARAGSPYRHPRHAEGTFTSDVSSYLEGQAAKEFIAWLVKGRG

[41] = biological target: fusion protein PA7
Sequence of fusion protein PA7 (chain, as listed by the source): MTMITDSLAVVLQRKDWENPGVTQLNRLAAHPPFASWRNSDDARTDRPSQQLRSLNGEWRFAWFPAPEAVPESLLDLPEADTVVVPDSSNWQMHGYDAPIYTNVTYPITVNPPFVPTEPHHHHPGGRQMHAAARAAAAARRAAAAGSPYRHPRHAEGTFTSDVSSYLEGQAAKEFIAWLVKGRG

[42] = biological target: fusion protein PRW
[43] = biological target: fusion protein PRMT
[44] = biological target: fusion protein PRM
[45] = biological target: fusion protein PA5′
Sequence of fusion protein PA5′ (chain, as listed by the source): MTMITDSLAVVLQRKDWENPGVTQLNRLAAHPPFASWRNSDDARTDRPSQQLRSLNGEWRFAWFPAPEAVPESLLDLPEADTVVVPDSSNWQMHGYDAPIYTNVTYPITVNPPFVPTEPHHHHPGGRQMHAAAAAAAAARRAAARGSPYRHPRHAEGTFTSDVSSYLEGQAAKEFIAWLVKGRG

[46] = biological target: fusion protein PRG

Sequence of fusion protein PA2 (chain, as listed by the source): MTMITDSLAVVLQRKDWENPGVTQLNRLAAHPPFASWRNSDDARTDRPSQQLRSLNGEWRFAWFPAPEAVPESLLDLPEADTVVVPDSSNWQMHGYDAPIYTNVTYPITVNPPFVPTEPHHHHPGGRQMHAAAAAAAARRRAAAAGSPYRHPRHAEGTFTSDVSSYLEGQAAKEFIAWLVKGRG
Sequence of fusion protein PA1A3′ (chain, as listed by the source): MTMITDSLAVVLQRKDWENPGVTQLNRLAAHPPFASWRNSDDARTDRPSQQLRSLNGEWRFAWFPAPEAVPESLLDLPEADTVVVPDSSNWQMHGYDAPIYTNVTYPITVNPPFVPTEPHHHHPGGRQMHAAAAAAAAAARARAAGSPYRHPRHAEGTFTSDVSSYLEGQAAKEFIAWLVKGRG
Sequence of fusion protein PRK (chain, as listed by the source): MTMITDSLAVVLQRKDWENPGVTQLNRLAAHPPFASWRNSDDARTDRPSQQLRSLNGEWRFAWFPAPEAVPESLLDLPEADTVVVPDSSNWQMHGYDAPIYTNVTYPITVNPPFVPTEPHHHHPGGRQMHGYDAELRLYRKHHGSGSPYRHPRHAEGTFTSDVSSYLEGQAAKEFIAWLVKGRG

B1: OmpT protease (wild-type, E. coli mature OmpT protease) (protein)
chain: STETLSFTPDNINADISLGTLSGKTKERVYLAEEGGRKVSQLDWKFNNAAIIKGAINWDLMPQISIGAAGWTTLGSRGGNMVDQDWMDSSNPGTWTDESRHPDTQLNYANEFDLNIKGWLLNEPNYRLGLMAGYQESRYSFTARGGSYIYSSEEGFRDDIGSFPNGERAIGYKQRFKMPYIGLTGSYRYEDFELGGTFKYSGWVESSDNDEHYDPGKRITYRSKVKDQNYYSVAVNAGYYVTPNAKVYVEGAWNRVTNKKGNTSLYDHNNNTSDYSKNGAGIENYNFITTAGLKYTF
B1 gave a relative cleavage efficiency [1] of 100%, a relative cleavage efficiency [2] of under 3% and a relative cleavage efficiency [3] of 3.9%. For the same protein, the relative cleavage efficiency [4] was “less than 3%”, the relative cleavage efficiency [5] was “less than 3%” and the “cleavage (HPLC, mass analysis)” value [6] was “All of the PAn proteins underwent cleavage by OmpT protease at the same site as PA, while PA2, PA2′ and PA3′ also underwent cleavage at other sites”. For the same protein, the “cleavage efficiency against PA” value [6] was “the cleavage efficiencies of PA2 and PA2′ were reduced to about ⅓”, the relative cleavage efficiency [7] was 88% and the “cleavage (HPLC, mass analysis)” value [8] was “PA1A3′ and PA1′A3′ were both cleaved at Arg^143-Ala^144”. For the same protein, the “cleavage efficiency against PA” value [8] was “all of the cleavage efficiencies were lower than the cleavage efficiency at Arg^140-Arg^141 of PA”, the “cleavage (HPLC, mass analysis)” value [9] was “All of the PAn proteins underwent cleavage by OmpT protease at the same site as PA” and the “cleavage efficiency against PA” value [9] was “PA4 had the highest cleavage efficiency of about 5 times that of PA”. For the same protein, the “cleavage (HPLC, mass analysis)” value [10] was “the major cleavage site of PA5D23′, PA4D23′ and PA3D23′ is Arg^143-Ala^144”, the “cleavage at Arg^139-Arg^140 and Arg^140-Arg^141” value [10] was “no cleavage was detected at Arg^139-Arg^140 and Arg^140-Arg^141 as was detected with PA23′” and the “cleavage efficiency at Arg^143-Ala^144 against Arg^140-Arg^141 of PA” value (“cleavage efficiency … of PA” for short) [10] was “low compared to PA23′, but twice the cleavage efficiency at Arg^140-Arg^141 of PA”. For the same protein, the “cleavage (HPLC, mass analysis)” value [11] was “All of the PAn proteins underwent cleavage by OmpT protease at the same site as PA”, the “cleavage efficiency against PA” value [11] was “Increase in cleavage efficiency was seen for all of the PAn proteins except for PA2 and PA2′” and the “cleavage (SDS-PAGE, HPLC)” value [12] was “cleavage of the fusion protein PMT by OmpT protease was confirmed”. The “release of human motilin (cleavage at Arg^143-Phe^144)” value [12] was “only a very slight amount of peptide cleavage fragment of Arg^143-Phe^144, i.e. human motilin, was detected by mass analysis”, the relative cleavage efficiency: RAR-motilin (Arg^140-Arg^141) ([12]; scale: relative) was 23 and the relative cleavage efficiency: RRAR-motilin (Arg^139-Arg^140) ([12]; scale: relative) was 100. For the same protein, the relative cleavage efficiency [13] was “less than 3%”, the “cleavage (HPLC, mass analysis)” value [14] was “All of the PAn proteins underwent cleavage by OmpT protease at the same site as PA” and the “cleavage efficiency against PA” value [14] was “Increase in cleavage efficiency was seen for all of the PAn proteins except for PA2 and PA2′”. It also gave a relative cleavage efficiency [15] of 5.4%, a relative cleavage efficiency [16] of under 3% and a relative cleavage efficiency [17] of 3.1%. The “cleavage (HPLC, mass analysis)” value [18] was “All of the PAn proteins underwent cleavage by OmpT protease at the same site as PA”, the “cleavage efficiency against PA” value [18] was “Increase in cleavage efficiency was seen for all of the PAn proteins except for PA2 and PA2′” and the “cleavage (HPLC, mass analysis)” value [19] was “the major cleavage site of PA5D23′, PA4D23′ and PA3D23′ is Arg^143-Ala^144”. The “cleavage at Arg^140-Arg^141” value [19] was “cleavage was also observed at Arg^140-Arg^141”, the “cleavage efficiency … of PA” value [19] was 1.9 times the cleavage efficiency at Arg^140-Arg^141 of PA and the “cleavage (HPLC, mass analysis)” value [20] was “It was confirmed that PA23′, PA323′ and PA2′3′ are cleaved at Arg^143-Ala^144”. The “cleavage at Arg^140-Arg^141 against Arg^143-Ala^144” value [20] was “at 59% the cleavage efficiency at Arg^143-Ala^144”, the “cleavage efficiency … of PA” value [20] was “also 2.9 times the cleavage efficiency at Arg^140-Arg^141 of PA” and the “cleavage (HPLC, mass analysis)” value [21] was “It was confirmed that PA23′, PA323′ and PA2′3′ are cleaved at Arg^143-Ala^144”. The “cleavage efficiency … of PA” value [21] was “low at 63% of the cleavage efficiency at Arg^140-Arg^141 of PA”, the “cleavage (HPLC, mass analysis)” value [22] was “PA1A3′ and PA1′A3′ were both cleaved at Arg^143-Ala^144; also recorded: Cleavage was also confirmed at Arg^140-Ala^141 in PA1′A3′” and the “cleavage efficiency against PA” value [22] was “all of the cleavage efficiencies were lower than the cleavage efficiency at Arg^140-Arg^141 of PA”. The “cleavage (HPLC, mass analysis)” value [23] was “All of the PAn proteins underwent cleavage by OmpT protease at the same site as PA”, the “cleavage efficiency against PA” value [23] was “Increase in cleavage efficiency was seen for all of the PAn proteins except for PA2 and PA2′” and the “cleavage (HPLC, mass analysis)” value [24] was “the major cleavage site of PA5D23′, PA4D23′ and PA3D23′ is Arg^143-Ala^144”. The “cleavage at Arg^139-Arg^140 and Arg^140-Arg^141” value [24] was “no cleavage was detected at Arg^139-Arg^140 and Arg^140-Arg^141, similar to PA4D23′”, the “cleavage efficiency … of PA” value [24] was “about the same as the cleavage efficiency at Arg^140-Arg^141 of PA, and lower than PA4D23′” and the “cleavage (HPLC, mass analysis)” value [25] was “The fusion protein PCT was cleaved at Arg^139-Arg^140 and Arg^140-Arg^141 by wild-type OmpT protease, releasing RRAR-CT and RAR-CT”. For the same protein, the “cleavage (HPLC, mass analysis)” value [26] was “All of the PAn proteins underwent cleavage by OmpT protease at the same site as PA, while PA2, PA2′ and PA3′ also underwent cleavage at other sites”, the “cleavage efficiency against PA” value [26] was “the cleavage efficiencies of PA2 and PA2′ were reduced to about ⅓” and the “cleavage (HPLC, mass analysis)” value [27] was “All of the PAn proteins underwent cleavage by OmpT protease at the same site as PA”. For the same protein, the “cleavage efficiency against PA” value [27] was “Increase in cleavage efficiency was seen for all of the PAn proteins except for PA2 and PA2′”, the relative cleavage efficiency [28] was “less than 3%” and the relative cleavage efficiency [29] was under 3%. For the same protein, the “cleavage (HPLC, mass analysis)” value [30] was “It was confirmed that PA23′, PA323′ and PA2′3′ are cleaved at Arg^143-Ala^144”, the “cleavage efficiency … of PA” value [30] was 2.9 times the cleavage efficiency at Arg^140-Arg^141 of PA and the relative cleavage efficiency [31] was under 3%. The relative cleavage efficiency [32] was “less than 3%”, the “cleavage (HPLC, mass analysis)” value [33] was “All of the PAn proteins underwent cleavage by OmpT protease at the same site as PA” and the “cleavage efficiency against PA” value [33] was “Increase in cleavage efficiency was seen for all of the PAn proteins except for PA2 and PA2′”. The relative cleavage efficiency [34] was under 3%, the “cleavage efficiency (reference)” value [35] was “the cleavage efficiency of the fusion protein PA is 100%” and the relative cleavage efficiency [36] was 3.5%. For the same protein, the relative cleavage efficiency [37] was “less than 3%”, the “cleavage (HPLC, mass analysis)” value [38] was “The fusion protein PAC was cleaved at Arg^143-Ser^144 by wild-type OmpT protease to release human adrenocorticotropic hormone(1-24)” and the “cleavage (HPLC, mass analysis)” value [39] was “All of the PAn proteins underwent cleavage by OmpT protease at the same site as PA, while PA2, PA2′ and PA3′ also underwent cleavage at other sites”. The “cleavage efficiency against PA” value [39] was “Increase in cleavage efficiency was seen for all of the PAn proteins except for PA2 and PA2′”, the “cleavage efficiency at Arg^140-Arg^141 (PA = 100%)” value [39] was “cleavage efficiencies: 220%, 73%” and the “cleavage efficiency at Arg^143-Ala^144 (PA = 100%)” value [39] was “cleavage efficiencies: 220%, 73%”. The “cleavage (HPLC, mass analysis)” value [40] was “All of the PAn proteins underwent cleavage by OmpT protease at the same site as PA”, the “cleavage efficiency against PA” value [40] was “Increase in cleavage efficiency was seen for all of the PAn proteins except for PA2 and PA2′” and the “cleavage (HPLC, mass analysis)” value [41] was “All of the PAn proteins underwent cleavage by OmpT protease at the same site as PA”. For the same protein, the “cleavage efficiency against PA” value [41] was “Increase in cleavage efficiency was seen for all of the PAn proteins except for PA2 and PA2′”, the relative cleavage efficiency [42] was “less than 3%” and the “cleavage (SDS-PAGE)” value [43] was “no cleavage of PRMT was detected”. The relative cleavage efficiency [44] was under 3%, the “cleavage (HPLC, mass analysis)” value [45] was “All of the PAn proteins underwent cleavage by OmpT protease at the same site as PA” and the “cleavage efficiency against PA” value [45] was “Increase in cleavage efficiency was seen for all of the PAn proteins except for PA2 and PA2′”. For the same protein, the relative cleavage efficiency [46] was “less than 3%”.
